Blank lines part the entries; values can stand above or below the binder they belong to.
Key:
[1] = target: T1, human CD28 on the surface of human PBMCs / T cells (human, UniProt P10747 19-220); assay: flow cytometry on human PBMCs, 1 h at 4 C, detected with Alexa Fluor 647 anti-human IgG Fc secondary
T1 construct: whole, on cells; Endogenous CD28 on human PBMCs (flow cytometry) and on T cells (functional assays); also called cell-surface CD28
Excerpt: Binding of the phage-derived bivalent mAbs to cell-surface CD28 was investigated.

[2] = target: T2, human PSMA on the surface of prostate cancer cell lines (C42B / C42B-NLR, 22Rv1 / 22Rv1-NLR, PSMA-transfected … (human, UniProt Q04609 1-750)); assay: flow cytometry on 22Rv1-NLR (PSMA med) cells, 30 min at 37 degrees, detection with anti-human-Ig-FITC
T2 construct: whole, on cells; also called Prostate Specific Membrane Antigen

[3] = target: T3, CD28 antigen used for the affinity determinations (human, UniProt P10747 19-152, limits assumed); assay: CD28 binding affinity of the scFv arm; method not stated
T3 construct: Octet/BLI is described only for the bivalent mAbs

[4] = target: T3, CD28 antigen used for the affinity …; assay: CD28 binding affinity of the scFv arm; method not stated; assigned to XENP40470 by elimination
[5] = target: T2, human PSMA on the surface of prostate …; assay: binding to C4-2B (C42B, PSMA^hi) cells, MFI against concentration, least squares fit
[6] = target: T3, CD28 antigen used for the affinity …; assay: CD28 binding affinity of the scFv arm, told in a figure legend; method not stated

B2: PSMA x CD28 bsAb with A10 PSMA binding domain and 1A7_H1_L1.71 CD28 binding domain (Platform X) (bispecific antibody)
heavy: not shown
scFv-Fc: not shown
light: SYELMQPPSVSVSPGQTARITCSGDALPKQYAYWYQQKPGQAPVLVIYKDSERPSGIPVRFSGSSSGTTVTLTITGVQAEDEADYYCQSADSSGTYVFGTGTKVTVLGQPKAAPSVTLFPPSSEELQANKATLVCLISDFYPGAVTVAWKADSSPVKAGVETTTPSKQSNNKYAASSYLSLTPEQWKSHRSYSCQVTHEGSTVEKTVAPTECS
EC50 (read off the curve) [2]: ~0.06 µg/mL

B5: XENP38936 (bispecific antibody)
heavy: not shown
scFv-Fc: not shown
light: SYELMQPPSVSVSPGQTARITCSGDALPKQYAYWYQQKPGQAPVLVIYKDSERPSGIPVRFSGSSSGTTVTLTITGVQAEDEADYYCQSADSSGTYVFGTGTKVTVLGQPKAAPSVTLFPPSSEELQANKATLVCLISDFYPGAVTVAWKADSSPVKAGVETTTPSKQSNNKYAASSYLSLTPEQWKSHRSYSCQVTHEGSTVEKTVAPTECS
notes: also called PSMA x CD28 180 nM
EC50 (read off the curve) [5]: ~2 nM
Kd [6]: 180 nM

Results, then the binder that gave them:

binding result [1]: binds
B1: XENP27181 (antibody, V domains shown)
VH: QVQLQESGPGLVKPSETLSLTCAVSGFSLTSYGVHWIRQPPGKGLEWLGVIWPGGGTNFNSALMSRLTISEDTSKNQVSLKLSSVTAADTAVYYCARDRAYGNYLYAMDYWGQGTLVTVSS
VL: DIQMTQSPSSLSASVGDRVTITCRASESVEYYVTSLMQWYQQKPGKAPKLLIYAASNVDSGVPSRFSGSGSGTDFTLTISSLQPEDIATYYCQQSRKVPFTFGGGTKVEIKR
notes: Bivalent anti-CD28 mAb; also called HuTN228; prior art anti-CD28 mAb HuTN228; copies: 2 + 2

Kd [3]: 1000 nM
B3: XENP39231 (bispecific antibody)
heavy: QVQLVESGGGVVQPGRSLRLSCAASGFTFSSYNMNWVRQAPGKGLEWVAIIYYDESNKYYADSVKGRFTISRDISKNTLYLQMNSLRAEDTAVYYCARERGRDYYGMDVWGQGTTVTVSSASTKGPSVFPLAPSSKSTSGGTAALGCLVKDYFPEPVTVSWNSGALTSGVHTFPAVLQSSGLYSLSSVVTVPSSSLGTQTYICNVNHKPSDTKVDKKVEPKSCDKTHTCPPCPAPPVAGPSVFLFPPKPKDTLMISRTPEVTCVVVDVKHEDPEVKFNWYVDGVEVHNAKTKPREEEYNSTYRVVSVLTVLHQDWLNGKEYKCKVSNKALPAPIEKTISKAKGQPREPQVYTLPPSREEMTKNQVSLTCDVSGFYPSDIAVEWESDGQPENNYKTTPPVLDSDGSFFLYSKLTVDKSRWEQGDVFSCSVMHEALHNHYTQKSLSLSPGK
scFv-Fc: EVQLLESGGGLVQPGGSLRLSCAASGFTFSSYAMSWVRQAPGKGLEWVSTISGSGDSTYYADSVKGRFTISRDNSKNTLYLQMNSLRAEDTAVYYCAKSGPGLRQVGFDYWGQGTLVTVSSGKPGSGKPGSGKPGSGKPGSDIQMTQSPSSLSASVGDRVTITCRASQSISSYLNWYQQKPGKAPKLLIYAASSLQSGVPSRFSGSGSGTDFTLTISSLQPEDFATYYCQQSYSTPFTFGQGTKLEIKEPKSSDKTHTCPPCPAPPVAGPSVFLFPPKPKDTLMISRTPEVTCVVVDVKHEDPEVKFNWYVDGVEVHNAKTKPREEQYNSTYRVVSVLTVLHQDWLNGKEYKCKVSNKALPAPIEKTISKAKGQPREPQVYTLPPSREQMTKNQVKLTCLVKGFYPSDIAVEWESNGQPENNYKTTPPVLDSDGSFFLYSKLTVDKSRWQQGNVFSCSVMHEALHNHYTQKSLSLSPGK
light: SYELMQPPSVSVSPGQTARITCSGDALPKQYAYWYQQKPGQAPVLVIYKDSERPSGIPVRFSGSSSGTTVTLTITGVQAEDEADYYCQSADSSGTYVFGTGTKVTVLGQPKAAPSVTLFPPSSEELQANKATLVCLISDFYPGAVTVAWKADSSPVKAGVETTTPSKQSNNKYAASSYLSLTPEQWKSHRSYSCQVTHEGSTVEKTVAPTECS
notes: also called PSMA x CD28 1 uM

Kd [4]: 600 nM
B4: XENP40470 (bispecific antibody)
heavy: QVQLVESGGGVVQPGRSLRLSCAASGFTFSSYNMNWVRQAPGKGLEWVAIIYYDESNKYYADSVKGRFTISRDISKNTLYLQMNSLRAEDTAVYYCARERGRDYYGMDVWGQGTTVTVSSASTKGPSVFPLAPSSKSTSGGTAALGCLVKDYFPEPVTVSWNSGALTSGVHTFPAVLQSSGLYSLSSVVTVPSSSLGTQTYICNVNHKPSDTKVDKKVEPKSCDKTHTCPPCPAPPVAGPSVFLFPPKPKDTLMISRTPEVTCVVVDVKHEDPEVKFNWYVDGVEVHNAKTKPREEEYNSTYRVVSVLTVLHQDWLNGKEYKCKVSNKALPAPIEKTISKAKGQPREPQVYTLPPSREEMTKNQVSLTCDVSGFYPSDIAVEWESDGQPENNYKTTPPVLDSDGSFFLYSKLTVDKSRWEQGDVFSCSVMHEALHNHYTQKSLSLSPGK
scFv-Fc: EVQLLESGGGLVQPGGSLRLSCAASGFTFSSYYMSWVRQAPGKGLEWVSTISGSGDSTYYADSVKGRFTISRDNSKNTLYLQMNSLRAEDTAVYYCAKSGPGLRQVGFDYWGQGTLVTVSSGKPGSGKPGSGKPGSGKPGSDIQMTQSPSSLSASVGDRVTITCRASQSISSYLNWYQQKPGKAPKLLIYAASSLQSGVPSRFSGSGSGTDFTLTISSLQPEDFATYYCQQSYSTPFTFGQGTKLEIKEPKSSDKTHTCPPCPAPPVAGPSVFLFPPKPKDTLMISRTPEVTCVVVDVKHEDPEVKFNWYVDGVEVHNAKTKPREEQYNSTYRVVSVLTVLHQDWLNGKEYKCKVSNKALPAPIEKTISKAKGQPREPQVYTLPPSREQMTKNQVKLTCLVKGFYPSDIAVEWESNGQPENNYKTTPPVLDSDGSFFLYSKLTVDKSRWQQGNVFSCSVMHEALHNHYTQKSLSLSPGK
light: SYELMQPPSVSVSPGQTARITCSGDALPKQYAYWYQQKPGQAPVLVIYKDSERPSGIPVRFSGSSSGTTVTLTITGVQAEDEADYYCQSADSSGTYVFGTGTKVTVLGQPKAAPSVTLFPPSSEELQANKATLVCLISDFYPGAVTVAWKADSSPVKAGVETTTPSKQSNNKYAASSYLSLTPEQWKSHRSYSCQVTHEGSTVEKTVAPTECS
notes: Assigned to the 600 nM domain by elimination, because XENP39231 is told to be 1000 nM

From patent US20250388704A1 (Xencor, published 2025)
